The source of these data is paper PMC3536711, “Directed Evolution of a Model Primordial Enzyme Provides Insights into the Development of the Genetic Code” (PLoS Genetics, 2013).

The target of the experiment is 9-CM, simplified chorismate mutase composed of only nine different amino acids. In words: SEC; size-exclusion column after Ni-NTA affinity purification; dimer peak (major peak around 170 mL) isolated for each sample; small fraction of aggregates in the mutant proteins.

As to “9-CM, simplified chorismate mutase composed of only nine different amino acids (enzyme)”, the stoichiometry N (usually a count of units in the complex or per binding partner) was found to be 2.
